This note sets out measurements from PMC4577081 (2015).

This assay deals with human CD47/his fusion protein (extracellular domain of human CD47 fused to His-tag) (human). Briefly: SPR; monomeric hCD47.

B1: mouse anti-human CD47 monoclonal antibody 5F9 (antibody, V domains shown)
VH: QVQLQQPGAELVKPGASVMMSCKASGYTFTNYNMHWVKQTPGQGLEWIGTIYPGNDDTSYNQKFKDKATLTADKSSSAAYMQLSSLTSEDSAVYYCARGGYRAMDYWGQGTSVTVSS
VL: DVLMTQTPLSLPVSLGDQASISCRSSQSIVYSNGNTYLGWYLQKPGQSPKLLIYKVSNRFSGVPDRFSGSGSGTDFTLKISRVEAEDLGVYHCFQGSHVPYTFGGGTKVEIK
modifications: biotin-labeled in the competition ELISA (site not stated)
Turning to B1, the Kd came to 19.9 nM.
